Data taken from publication PMC6529018.

Biological target: Recombinant His-BifA (full length) (Streptococcus equi subsp. zooepidemicus ATCC35246)
Assay: SPR; Biacore X100; His-BifA and its variants immobilised on NTA sensorchips, moesin, moesin T558A or moesin T558D injected

| Substance | Kd [nM] |
| --- | --- |
| Recombinant moesin T558D, non-tagged (from UniProt P26038 1-577) (natural protein) | 10.8 |
| Recombinant moesin T558A, non-tagged (from UniProt P26038 1-577) (natural protein) | 737 |
